B1: H4H10430P (antibody, human IgG4, V domains shown)
VH: EVQLVESGGGLVQPGRSLRLSCKASGFAFDDFAMHWVRQAPGKGLEWVSGIVWNSGDIGYADSVKGRFTISRDNAKNSLYLQLNSLRTEDTALYFCVKDMVRGLMGFNYYGMDVWGQGTTVTVSS
VL: EIVLTQSPATLSLSPGERATLSCRASQTISTYLVWYRQRPGQAPSLLIYDASNRATDIPARFSGSGSGTDFTLTISSLEPEDFAVYYCQQRSNWPITFGQGTRLEIK
notes: also called H4H1430P; H4H10430P2
B2: H4H10440P2 (antibody, human IgG4, V domains shown)
VH: EVQLVESGGGVVQPGGSLRLSCAASTFTFDDFAMHWVRQAPGKGLEWVSLITGDGGSTYYADPVKGRFTISRDNSKNSLYLQMNSLRTEDTALYYCVKDWWIAARPDYYYYGMDVWGQGTTVTVSS
VL: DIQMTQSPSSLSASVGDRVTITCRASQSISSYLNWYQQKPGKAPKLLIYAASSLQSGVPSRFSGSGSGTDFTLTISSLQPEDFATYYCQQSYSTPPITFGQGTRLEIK

Columns and labels:
[1] = molecular target: T1, Activin A (human, UniProt P08476 311-426); assay: Octet cross-competition; binder on anti-hFc tip; 50 nM hActivin A pre-bound with 1 uM H4H10468P2 (col 2); white box
T1 construct: Homodimer of two βA subunits; bought from R&D Systems (#338-AC); also called inhibin-βA dimer; human Activin A
T1 sequence: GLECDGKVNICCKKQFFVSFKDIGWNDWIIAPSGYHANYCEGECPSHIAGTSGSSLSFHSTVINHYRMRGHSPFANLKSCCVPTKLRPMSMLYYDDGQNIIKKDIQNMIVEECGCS
Method: (§1) No. 8,309,082) and Control 3 (MAB3381, available from R&D Systems, Inc., Minneapolis, Minn.) were also included in the assays. All assays were performed at 25° C. with a microtiter plate shaking rate of 1000 rpm in Octet HBST buffer (0.01 M HEPES pH7.4, 0.15M NaCl, 3 mM EDTA, 0.05% v/v Surfactant P20, 0.1 mg/mL BSA) according to manufacturer's instructions (ForteBio Corp., Menlo Park, Calif.). […] Any remaining anti-hFc binding sites on the tips were blocked by incubating the tips in a 50 ug/mL solution of irrelevant antibody for 5 minutes.

[2] = molecular target: T1, Activin A; assay: Octet cross-competition; binder on anti-hFc tip; 50 nM hActivin A pre-bound with 1 uM H4H10436P2 (col 8); black box
Method: as §1

[3] = molecular target: T2, Activin B (human, UniProt P09529 293-407); assay: SPR, captured mAb, 25C
T2 construct: Homodimer of two βB subunits; R&D Systems #659-AB
T2 chain: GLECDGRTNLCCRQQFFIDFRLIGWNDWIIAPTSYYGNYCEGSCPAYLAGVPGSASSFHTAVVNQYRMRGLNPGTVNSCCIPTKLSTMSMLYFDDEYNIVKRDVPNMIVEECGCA
Procedure, shortened: (§2)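 240 s association, 600 s buffer dissociation; ka, kd fitted; KD (M) = kd/ka; t1/2 (min) = ln2/(60*kd).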

[4] = molecular target: T1, Activin A; assay: SPR, captured mAb, 25C
Procedure, shortened: as §2

[5] = molecular target: T1, Activin A; assay: Octet cross-competition; binder on anti-hFc tip; 50 nM hActivin A pre-bound with 1 uM H4H10432P2 (col 7); black box
Method: as §1

[6] = molecular target: T1, Activin A; assay: Octet cross-competition; binder on anti-hFc tip; 50 nM hActivin A pre-bound with 1 uM H4H10446P2 (col 1); white box
Method: as §1

[7] = molecular target: T1, Activin A; assay: Octet cross-competition; binder on anti-hFc tip; 50 nM hActivin A pre-bound with 1 uM H4H10442P2 (col 3); white box
Method: as §1

[8] = molecular target: T1, Activin A; assay: Octet cross-competition; binder on anti-hFc tip; 50 nM hActivin A mixed with 1 uM Isotype control 13 (-) (col 13); dark grey box
Method: as §1

[9] = molecular target: T1, Activin A; assay: Octet cross-competition; binder on anti-hFc tip; 50 nM hActivin A pre-bound with 1 uM Control 1 (col 10); black box
Method: as §1

[10] = molecular target: T1, Activin A; assay: Octet cross-competition; binder on anti-hFc tip; 50 nM hActivin A pre-bound with 1 uM H4H10440P2 (col 9); black box
Method: as §1

[11] = molecular target: T1, Activin A; assay: Octet cross-competition; binder on anti-hFc tip; 50 nM hActivin A mixed with 1 uM Isotype control 12 (-) (col 12); dark grey box
Method: as §1

[12] = molecular target: T1, Activin A; assay: Octet cross-competition; binder on anti-hFc tip; 50 nM hActivin A pre-bound with 1 uM H4H10423P (col 4); black box
Method: as §1

[13] = molecular target: T1, Activin A; assay: Octet cross-competition; binder on anti-hFc tip; 50 nM hActivin A pre-bound with 1 uM H4H10429P (col 6); black box
Method: as §1

[14] = molecular target: T1, Activin A; assay: Octet cross-competition; binder on anti-hFc tip; 50 nM hActivin A pre-bound with 1 uM Control 3 (col 11); black box
Method: as §1

[15] = molecular target: T2, Activin B; assay: SPR, captured mAb, 37C
Procedure, shortened: as §2

[16] = molecular target: T1, Activin A; assay: SPR, captured mAb, 37C
Procedure, shortened: as §2

[17] = molecular target: T1, Activin A; assay: Octet cross-competition; binder on anti-hFc tip; 50 nM hActivin A pre-bound with 1 uM H4H10423P (col 4); white box
Method: as §1

[18] = molecular target: T1, Activin A; assay: Octet cross-competition; binder on anti-hFc tip; 50 nM hActivin A pre-bound with 1 uM H4H10430P (col 5); black box
Method: as §1

Row | Binder | binding response [1] | binding response [2] | 50 nM Ag Bound (RU) [3] | Activin A-20 nM (RU) [4] | Kd [4] | koff [4] | kon [4] | t1/2 [4] | binding response [5] | binding response [6] | binding response [7] | binding response [8] | binding response [9] | binding response [11] | binding response [13] | binding response [14] | 50 nM Ag Bound (RU) [15] | Activin A-20 nM (RU) [16] | Kd [16] | koff [16] | also measured
1 | B1 | 1.84 | 0.31 | 3.9 RU | 19.4 RU | 0.00352 nM | 0.000167 s⁻¹ | 4.75e+07 M⁻¹ s⁻¹ | 69 min | 0.26 | 1.55 | 1.76 | 0.27 | 0.2 | 0.49 | 0.62 | -0.03 | 3.6 RU | 25 RU | 0.00397 nM | 0.000151 s⁻¹ | binding response [10]: 0.31; binding response [12]: 0.33; binding result [15]: no binding (tested: 50 nM); kon [16]: 3.8e+07 M⁻¹ s⁻¹; t1/2 [16]: 76.5 min
2 | B2 | 1.37 | 0.32 | 18.8 RU | 12.9 RU | 0.0247 nM | 9.28e-05 s⁻¹ | 3.76e+06 M⁻¹ s⁻¹ | 124 min | 0.27 | 1.17 | 1.4 | 0.11 | 0.13 | 0.28 | 0.41 | -0.05 | 20.9 RU | 15.3 RU | 0.0515 nM | 0.000328 s⁻¹ | Kd [3]: 1.09 nM; koff [3]: 0.00116 s⁻¹; kon [3]: 1.06e+06 M⁻¹ s⁻¹; t1/2 [3]: 10 min; binding response [17]: 1.22; binding response [18]: 0.29; Kd [15]: 3.29 nM; koff [15]: 0.00419 s⁻¹; kon [15]: 1.28e+06 M⁻¹ s⁻¹; t1/2 [15]: 2.8 min; kon [16]: 6.37e+06 M⁻¹ s⁻¹; t1/2 [16]: 35.2 min

— patent publication US20150037339A1 (Regeneron, published 2015)
